Measured values reported in article PMC8641065 (The New phytologist, 2021).

Molecular target: T1, HY5-S36A-GFP (Arabidopsis thaliana, UniProt O24646 1-168, S36A)
T1 sequence (looked up): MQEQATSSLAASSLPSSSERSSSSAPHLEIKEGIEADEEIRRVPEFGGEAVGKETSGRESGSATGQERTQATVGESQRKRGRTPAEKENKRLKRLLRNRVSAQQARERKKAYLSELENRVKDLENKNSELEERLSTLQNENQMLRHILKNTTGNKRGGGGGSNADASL
Experiment: co-IP

B1: COP1 (constitutive photomorphogenic1), endogenous (natural protein, UniProt P43254 1-675, looked up)
chain: MEEISTDPVVPAVKPDPRTSSVGEGANRHENDDGGSGGSEIGAPDLDKDLLCPICMQIIKDAFLTACGHSFCYMCIITHLRNKSDCPCCSQHLTNNQLYPNFLLDKLLKKTSARHVSKTASPLDQFREALQRGCDVSIKEVDNLLTLLAERKRKMEQEEAERNMQILLDFLHCLRKQKVDELNEVQTDLQYIKEDINAVERHRIDLYRARDRYSVKLRMLGDDPSTRNAWPHEKNQIGFNSNSLSIRGGNFVGNYQNKKVEGKAQGSSHGLPKKDALSGSDSQSLNQSTVSMARKKRIHAQFNDLQECYLQKRRQLADQPNSKQENDKSVVRREGYSNGLADFQSVLTTFTRYSRLRVIAEIRHGDIFHSANIVSSIEFDRDDELFATAGVSRCIKVFDFSSVVNEPADMQCPIVEMSTRSKLSCLSWNKHEKNHIASSDYEGIVTVWDVTTRQSLMEYEEHEKRAWSVDFSRTEPSMLVSGSDDCKVKVWCTRQEASVINIDMKANICCVKYNPGSSNYIAVGSADHHIHYYDLRNISQPLHVFSGHKKAVSYVKFLSNNELASASTDSTLRLWDVKDNLPVRTFRGHTNEKNFVGLTVNSEYLACGSETNEVYVYHKEITRPVTSHRFGSPDMDDAEEEAGSYFISAVCWKSDSPTMLTANSQGTIKVLVLAA
fold of COP1 co-immunoprecipitated, against the HY5-S36D-GFP line: 4 fold
